From the supplement of paper PMC12042874 come the findings set out here.

± gives the uncertainty stated by the source.

This data set in a line: amyloid nucleation score (Sup35N fusion, yeast selection) (log enrichment); library NNK2; higher = more nucleation; inactive = no reads after selection. In short, it runs like this: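 Plasmid inserts were Illumina-sequenced at input and output from psi-negative yeast expressing Sup35N fused to peptides of 20 random codons. The yeast were induced with 100 μM copper sulfate for 24 hours and grown 7 days at 30°C on medium lacking adenine and uracil, and sequences with under 100 input reads were excluded. Nucleation score is the DiMSum log enrichment of output over input reads, centred on the mode score of non-aggregating sequences.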
DEWPWAVPSGVSRGCAGSVY showed an amyloid nucleation score of 0.231 ± 0.32.

Substance DFDRSMRIARDNKRYGPVLV showed an amyloid nucleation score of -0.166 ± 1.1.

Substance DFFYTYGGIYGYWSFRHGIV registered an amyloid nucleation score of -1.24 ± 0.62.

Consider DFGREVVVIPLSEV, for which the amyloid nucleation score came out at 0.323 ± 0.53.

For the substance DFGYYREIHDEEECSCLKVY, the amyloid nucleation score is -0.981 ± 0.78.

Consider DFLNWEDFCIMSECWNSTVQ, for which the amyloid nucleation score result was “inactive”.

As to DFYGYRKDFFLEQCPACSLY, the amyloid nucleation score was -1.38 ± 0.78.

In the case of DFYLFQG, the amyloid nucleation score stood at 0.228 ± 0.56.

As for DGASIFSSAFIVGSGTLKQM, the amyloid nucleation score is -0.911 ± 0.78.

For the substance DGFRGLGLFHTY, the amyloid nucleation score was -0.561 ± 0.31.

As to DGFYCL, the amyloid nucleation score came out at 0.019 ± 1.1.

As for DGISFSAKSSSYSDASLRMR, the amyloid nucleation score was determined as 1.62 ± 0.097.

DGKMNPVSAY: the amyloid nucleation score entry was “inactive”.

DGKNYVKTNSNGIRNGMSIW showed an amyloid nucleation score of -0.576 ± 0.76.

In the case of DGKVSC, the amyloid nucleation score entry is “inactive”.

Turning to DGNAVCDILLLTSIMVSVSA, the amyloid nucleation score was -0.551 ± 0.54.

DGPIPLLSGMGHGGRYLWCV gave an amyloid nucleation score of 1.01 ± 0.18.

Take DGPLSLNSIHFTWLRAMDKV: the amyloid nucleation score is -0.297 ± 1.1.

As to DGSNIFLLV, the amyloid nucleation score was -0.482 ± 0.56.

In turn, DGVSHC returned an amyloid nucleation score of 0.02 ± 0.79.

DHCMMLRFN showed an amyloid nucleation score of 0.716 ± 0.6.

In the case of DHFGGCYMSATRSWHDFKMG, the amyloid nucleation score entry was “inactive”.

Turning to DHSEYSVITKFVLHRSCSQG, the amyloid nucleation score was 8.451 ± 0.067.

Substance DIMVERGAFIGLKAD returned an amyloid nucleation score of 5.41 ± 0.068.

As to DIVIDRNMSLWDPFNIVPFE, the amyloid nucleation score is -0.27 ± 0.79.

DIVMCFLGRHHQSTEAGLSM: the amyloid nucleation score was 4.49 ± 0.056.

Consider DIWPNDLGYVFVLSA, for which the amyloid nucleation score was -0.218 ± 0.53.

DKRGF: the amyloid nucleation score result was “inactive”.

Substance DKVDLSA returned an amyloid nucleation score of 0.053 ± 1.1.

The substance DKYSIVSSGPYMSNKSLVRR registered an amyloid nucleation score of -0.109 ± 0.79.

Substance DLDVN showed an amyloid nucleation score of -0.214 ± 0.56.

In the case of DLEIPFLKRKG, the amyloid nucleation score was -0.349 ± 0.6.

DLFNRNIVVCSLFLGYMVTI: the amyloid nucleation score was found to be 2.99 ± 0.092.

DLGGMP came in with an amyloid nucleation score of -0.501 ± 0.48.

For DLGHTYTSMYGFLTPSRDVD, the amyloid nucleation score is -0.052 ± 0.5.

Turning to DLVRYFC, the amyloid nucleation score was 4.26 ± 0.055.

As for DMDRCLGY, the amyloid nucleation score came to 0.812 ± 0.2.

DMNVVYTVCRVKARDCERDY gave an amyloid nucleation score of 5.322 ± 0.041.

As for DMTVLYCMFCSLSWQINCFR, the amyloid nucleation score was 0.838 ± 0.25.

For the substance DMWTSFWSCSTYRKEYFTRC, the amyloid nucleation score was 1.25 ± 0.11.

In the case of DMYLRIS, the amyloid nucleation score result is “inactive”.

The substance DNCLTGIEWI registered an amyloid nucleation score of -1.83 ± 1.

DNCRYVKRSSYSRVCAHYKS returned an amyloid nucleation score of -0.627 ± 0.41.

For the substance DNILICMYGDVYMGCYCQAI, the amyloid nucleation score is 8.632 ± 0.05.

DNVGYYNINKDLKFIVGSSH: the amyloid nucleation score is 0.274 ± 1.1.

DRAVLRGVVSDNSV had an amyloid nucleation score of 0.439 ± 0.74.

As for DRFVWVADTWWSRRNNAAFG, the amyloid nucleation score worked out at 4.16 ± 0.054.

DRQTATSEMVSNRLISFRLV: the amyloid nucleation score stood at 0.145 ± 0.19.

DRRELRHDDAVVAYIDVVIE yielded an amyloid nucleation score of 1.05 ± 0.28.

DRRRK returned an amyloid nucleation score of 1.43 ± 0.23.

With DRYNHKSSMIREVRLLIASY, the amyloid nucleation score was -0.123 ± 0.76.

As to DRYYVFLILWTRGNTRRPTG, the amyloid nucleation score was -1.02 ± 0.39.

Substance DSDKLHDRDVVWNWGRGLYR showed an amyloid nucleation score of 0.399 ± 0.23.

In the case of DSEHYVMWLKWYLLFLTYTH, the amyloid nucleation score is -0.307 ± 0.3.

On to DSFLKKCSLIRIQVRAVFVL, for which the amyloid nucleation score was -1.14 ± 1.

As for DSIYVL, the amyloid nucleation score is -0.831 ± 0.44.

DSLFIACVSLF: the amyloid nucleation score is -0.26 ± 0.63.

In the case of DSLPSRNSNIGWIQWILWGI, the amyloid nucleation score was -0.121 ± 1.1.

With DSSMFYVIGLL, the amyloid nucleation score was -0.626 ± 0.79.
